Molecular target: Human FcRn, biotinylated (human, UniProt P55899 24-297; P61769 21-119)

B1: Ab2-7 scFv-Fc (Fc fusion)
chain 1: QVTLKESGPTRVKPTQTLTLTCTFSGFSLSTTGVGVGWIRQPPGKALEWLALIYWNDDKRYSPSLKSRLTITKDTSKNQVVLTMTNMDPVDTATYYCARISGSGYFYPFDIWGQGTTVTVSS
chain 2: NFMLTQPHSVSESPGKTVTISCTRSSGSIASNYVQWYQQRPGSSPTTVIYEDNQRPSGVPDRFSGSIDSSSNSASLTISGLKAEDEADYYCQSYDSSSLWVFGGGTKLTVL
Kd: 11.7 nM
koff: 0.00198 s⁻¹
kon: 169000 M⁻¹ s⁻¹
